The text below walks through data of paper PMC5744401.

Conditions in all cases: EMSA: 0.3 nM DIG-labeled probe; buffer, salt, pH and temperature as in Zhu et al. 2016 (not given)
For orientation: In EMSA bound probe runs differently from free probe, usually more slowly.

In series [1] the target is T1, His6-AvaR1 (Streptomyces avermitilis) (UniProt Q82H41).
T1 sequence: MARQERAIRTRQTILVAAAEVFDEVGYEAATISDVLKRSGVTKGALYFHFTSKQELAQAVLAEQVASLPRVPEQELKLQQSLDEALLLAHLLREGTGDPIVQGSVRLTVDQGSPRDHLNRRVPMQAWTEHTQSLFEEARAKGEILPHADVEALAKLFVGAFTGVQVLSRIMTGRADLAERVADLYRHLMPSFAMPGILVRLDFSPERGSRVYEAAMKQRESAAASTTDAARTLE
The series can be described thus: EMSA.

Series [2] has as its target T1, His6-AvaR1 (Streptomyces avermitilis). The series can be described thus: DNase I footprinting.
For series [3] the target is unchanged. Put plainly: competition EMSA.
Series [4] deals with His6-AvaR1 (Streptomyces avermitilis). The series can be described thus: competition EMSA.
In series [5] the target is T2, His6-AvaR2 (Streptomyces avermitilis) (UniProt Q82H44).
T2 sequence: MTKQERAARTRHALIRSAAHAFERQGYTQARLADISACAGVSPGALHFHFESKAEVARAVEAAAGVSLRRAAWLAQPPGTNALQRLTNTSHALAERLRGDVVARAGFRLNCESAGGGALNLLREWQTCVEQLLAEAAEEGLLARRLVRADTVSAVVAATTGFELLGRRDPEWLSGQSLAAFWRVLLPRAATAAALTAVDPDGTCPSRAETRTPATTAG
The series can be described thus: EMSA.

The target in series [6] is T3, His6-AvaR1;GST-AvaR2 (Streptomyces avermitilis;Streptomyces avermitilis) (UniProt Q82H41+Q82H44).
T3 sequence 1: T1 sequence
T3 sequence 2: T2 sequence
The series can be described thus: EMSA.

Series [7] deals with T4, GST-AvaR2 (Streptomyces avermitilis) (UniProt Q82H44).
T4 sequence: T2 sequence
The series can be described thus: EMSA.

“CCGCTGGAGTCTGAGAAGCCATGGAAGCATTCACCACGCACACCGGCCGGGCCGTCCCGCTGCGCCGCAGCAACGTCGACACCGACCAGATCATCCCCGCCCACTGGCTCAAGAAGGTCACCAGGGACGGTTTCGAGGACGGGCTGTTCGAGGCCTGGCGCAAGGACGAGTCCTTCATCCTCAACCG (double strand) [leuDp]”: the binding result in series [1] was “binds”.
Turning to “TCAACCACCGTCATGTAGGGCGTACGCCCTTGCTGTACGGACCCGGTGTGTTGACGCCCGGTGCCGCGAGCGCACCCCCGCCCGCTCACGGCACCGGACTTCTCGGTGTTCCGGATGACGTCGTGCAGACGCGTGACAACTGCGCCAGTGCTGGTGCTGTGCAGCGTGTTCATCTCGCGCCCCCCGTCGTGGAGTCCGGTATCCCTGCGGTCTTGCCCTGCTGTCCTGCGGTGGTGCTGCCTTGCTTGTGTCGAAAAGCTTGCC (double strand) [probe 1]”, in series [1], the binding result was “no binding”.
Same read-out and setting: as for “TTCAACTGACCGTCCCGCACGTAGAGTTCTGGAGTCACCCGCACATGACCGTACGCAAGAACCAGGCGACCCTGACGGCCGACGAGAAGCGGCGCTTCGTCGACGCGCTCGTGGCGCTCAAGCGCAGTGGCCGCTACGACGAGTTCGTCACGACCCACAACGCCTTCATCATGGGCGACACCGACAGCGGCGAACGCACGGGCCATCGTTCGCCTTCCT (double strand) [melC2p]”, the entry is “no binding”; as for “TGCGGTGACCCCCATCTCGATCAGTTCGGTGGGGTGAAACCGCGTGAGCCGGTTGTCGTCCAGGCTCTGGGGCCCGGTGTCCGCGAGGGCGGGGAACGCCCTGAGGGAGGGGTAGGCATAAGGAAGGTACTCGGCGAGGCCGCTGCTGTGGTTGATCAACATCCGGACCGTGATCGCGTCACCGCGTTCTCCGGGAACCAGCCTCGGAAGGTACCGGCCGATCGGAGTGTCAAGACCGATCAGGTCACCGACGAGGAGTGCAACGC (double strand) [2051p]”, “no binding”.
Take “GCCACACGCACCCTCCGCACCAGCCCGACCAGCGGGACACCGTCCCGACCAGTGGGACACCGTCCGGATCGCGGGACACCGTCCCGACCAGCGGGAAAAGACCAAGCGGTTCGCACCCTAACAGCGACGATCCTCCACTCCACCGCCGAAGACAGGCCCGGTCCTGACCGGGACGATAAAACCAGCTGAACGGTTTTTCAATGCTCCCCTCGCCCTCTCACAAACCACTCAAAAACACATATCTCACCCCCAACTCCC (double strand) [avaR1 footprint probe]”: the binding result in series [2] was “binds”.
“ACTGATGCGCGAGAAAACCGCACAAGCGGTTTGTTAAAGTTGCTGGACCCCCATCAGCAACGGAGCGCCCGATGGTCAAGCAGGTCAGACAGGAACGCGCGATCCGCACGCGCAACGCCTTGATCGAGTCC (double strand) [avaR3p]”: the binding result in series [1] is “binds”. Further, the binding signal (affinity rank of 5 (1 = strongest)) in series [3] was 1.
For “GCCCTCGTCCCAGTAGAAGACGGGTCGCCGGGTTCCTGGGCCCGTGGCCCGCATGCGCAGCTCGACCTGGGTGATCACCTCGGTCTGCGTGGTCTCGACTCATGACCGCGCCGGTCAGCGCCTCCACAAGTCGTCCAAGTTTCAGCCGGTGGCAGACATTCCGTGA (double strand) [wbpAp]”, the binding result in series [1] is recorded as “no binding”.
As to avaR3p, in series [4], the binding signal (affinity rank of 5 (1 = strongest)) was 1.
Turning to avaR1p, in series [4], the binding signal (affinity rank of 5 (1 = strongest)) worked out at 5.
Regarding “TTGTGCCCTGTGTGTGCGCCATGGGCATACCGTCCGGGCGGAATGCCGGGTTCCGGCATCGAACGTCGTGCGATTCGGCAGTTCGAGCGATACCGGATGGTTTCGCTTCTGTTCGATTGCGGGGTGTGGTGTAGGCCAGTACGCGAAACTCGCCGGAAAAGGGGCACCCGCCGCCCGTAGGCTGGGAGGCAT (double strand) [3560p]”, in series [1], the binding entry is “binds”.
For “CTCGGGCGTGATCCGACTGCGGCGCACCGTTGCGGTCTCAGTCATCGCACTCGCCTCTCCTGCTTCGAACGACACGGTTTCCGGTTGCGTACGTCTACCCGTACGTCTTCCTCGTACCTTCCTGAAGATACCCCGAGAGCGAGCGAAACGAAACCGTTTCGTACGTGTCGTGGGTCACGCACATGTTTTCACAAGTTGCCGGGGCCCGTCGCGCGGAAAAGCATGGGTTAGGTGAACCCCGAGTCCGA (double strand) [aveTp]”, the binding entry in series [1] and in series [5] was “binds” each time.
Take “GAGCTTCTCCCTGGCTTGGGACGGGCTGACGTGAACCACGGGACCCGAGAAGGGCTGAGGAAGGGCTGGAGAGCTGCGGAAGAGCTGCGGAGGAGCTGCGGAAGAGCTGCGGAAGAGCTGGAGGTCAAAGATACGTACTAGACGGTTTTGTCTTCAAGTCCCTCTTGCGGTCAAGGGTCATCCCTTACAAGGGAGTTGGGGGTGAGATATGTGTTTTTGAGTGGTTTGTGAGAGGGCG (double strand) [acop]”: the binding entry in series [1] is on record as “binds”. Further, the binding signal (affinity rank of 5 (1 = strongest)) in series [3] turned out to be 4.
With “CCCTCGACCGGATTGTGGGAGCATCGTGCCATTCCAAGTGGCCGCTATGTGACCGAGTGCCCCCGATCGGCCCCAGATGGCGGGTTAAGGCTAATTAAGGAAACCCCCTGACGCCCCCTGACGGGGTCTGCTCACCCGCACGGCATGATGGCCCCCATGCGTGCGGTGGTGCAGAGGGTGGACGGCGCGAGCGTCGTCGTGGAAGGCGAGAACGGGCCGGAGACGGTCGGTGAGATCAACGGCGAGG (double strand) [amfCp]”, the binding result in series [1] is “binds”.
Turning to “GCGGAAGGCGGCTGACCAGAGGGCCCTGCAAGAAACCAGCATAGCGGTTTGTTTGTGGCGCCCGTCACCACTTCGCCGACGCGGTACCCCCGGAGGCCAGGCACCGGTCACTGCCGCCGCCCGCGCTGCCCGCTGCCGCCGCCGAGCCGTACCGCGCGGCTCGGGCGTCGCGCATGCCGTCAGGCCCCCGGCACCTCCCTG (double strand) [avaR2p]”, the binding entry in series [1] is “binds”. The binding signal (affinity rank of 5 (1 = strongest)) in series [3] amounted to 2.
On to “GAACTGGGTGACGAGGAGCTTCTCGCGAAGCTTCGCGAAGCCAAGGAAGAGCTGTTCAACCTCCGCTTCCAGGCGGCGACCGGTCAGCTCGAGAACCACGGTCGGCTCAAGGCCGTCCGCAAGGACATCGCGCGGATCTACACCCTGATGCGTGAGCGCGAGCTGGGCATCGAGACGGTGGAGAGCGCCTGATGAGCGAGAGCAACGTGACTGAGACCAACGAGCAGCGCGGTTTCCGCAAGACCCGTGAGGGTCTGGTCGTCAGCGACAAGATGGACAA (double strand) [rpsQp]”, for which the binding result in series [1] was “binds”.
“GTGCTGCAACACCGAATGGAATACCGGGTGACCGGTATGTATGGCGGTGCGGTGACCGCGGAAACGGCTCGGGCGGATTGACCGCCCGAGCCGGAGGAGAAGGCCATCGCCGCACCCGCGAGCAAGGGTCCAGAGGGACGGCGGCGCGAAGGCGGCCTGGCCTATGGGGAGTTCGGAGGACCAGGCGTCA (double strand) [aveRp]”: in series [1], the binding result is on record as “binds”. In addition, the binding signal (affinity rank of 5 (1 = strongest)) in series [3] turned out to be 3.
As to “GGGTAGTGTCAAGGTCGCTGACTTTGATGATTAACTGATGATCGTGGGATTCTGAGGTGGTGTTCGCGAGGGTGAAGGAGTTCCTTCCTGGAGACATCCGTGCCCCGGATGGCGGTCCACAATTCACGAGTGGGATGCGCAGTGGGTCGCGTGCTGCAACACCGAATGGAATACCGGGTGACCGGTATGTATGGC (double strand) [aveRp2]”, the binding result in series [6], in series [1] and in series [7] was “binds” each time.
Take “ATCCACGCTTCTCGCTCCGCCCAGTGTACGGCGCCGCGCGGACAGCGGCCGACCGGTTTTCCGGGGCCCGCGCGGAAGGCGGCAGGGGGGCCGGTACGGGCCGCGGACTGACCCGAATGGCGA (double strand) [ileSp]”: the binding entry in series [1] is given as “no binding”.
As for “GCTCTTCGTGCTCACCGTCTTCGTCGCGTACGCGTACGTATGGCGGCGCGGCGGTCTGGAATGGGACTGAGGGGCCTTTAACGACATGGGACTCGAAGAAAAGCTGCCGAGCGGATTCCTGCTGACGAC (double strand) [nuoB1p]”, in series [1], the binding entry was “binds”.
Regarding avaR2p, in series [4], the binding signal (affinity rank of 5 (1 = strongest)) is 2.
On the same count and under the same terms, the figure for aveRp is 3.
Turning to “GCCACACGCACCCTCCGCACCAGCCCGACCAGCGGGACACCGTCCCGACCAGTGGGACACCGTCCGGATCGCGGGACACCGTCCCGACCAGCGGGAAAAGACCAAGCGGTTCGCACCCTAACAGCGACGATCCTCCACTCCACCGCCGAAGACAGGCCCGGTCCTGACCGGGACGATAAAACCAGCTGAACGGTTTTTCAATGCTCCCCTCGCCCTCTCACAAACCACTCAAAAACACATATCTCACCCCCAACTCCC (double strand) [avaR1p]”, the binding result in series [1] is “binds”. Moreover, the binding signal (affinity rank of 5 (1 = strongest)) in series [3] was determined as 5.
